# Laboratory results from patent publication US20220119529A1 (SUZHOU KANOVA BIOPHARMACEUTICAL, published 2022).
# Substitutions are numbered along the chain they refer to.
# T1: human B7H3-4Ig on BaF3 cells (BaF3/B7H3-4Ig) (human, UniProt Q5ZPR3 29-534)
# T1 sequence: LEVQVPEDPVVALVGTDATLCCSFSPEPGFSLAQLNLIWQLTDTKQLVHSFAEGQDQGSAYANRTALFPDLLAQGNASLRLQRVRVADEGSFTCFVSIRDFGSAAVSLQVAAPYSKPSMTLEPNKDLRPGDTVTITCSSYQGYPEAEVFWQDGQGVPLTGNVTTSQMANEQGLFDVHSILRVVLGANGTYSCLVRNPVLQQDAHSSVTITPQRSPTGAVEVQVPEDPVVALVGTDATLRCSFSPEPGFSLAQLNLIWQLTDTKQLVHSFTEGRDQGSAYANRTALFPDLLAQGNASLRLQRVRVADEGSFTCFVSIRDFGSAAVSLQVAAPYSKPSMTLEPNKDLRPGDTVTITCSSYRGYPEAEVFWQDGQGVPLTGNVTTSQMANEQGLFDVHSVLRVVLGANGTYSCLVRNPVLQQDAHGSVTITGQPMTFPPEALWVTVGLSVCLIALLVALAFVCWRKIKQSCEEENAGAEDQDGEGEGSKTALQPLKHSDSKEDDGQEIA
# T2: Mouse B7H3 (plate-coated protein, ELISA) (mouse, UniProt Q8VE98 29-248, limits assumed)
# T2 sequence (looked up): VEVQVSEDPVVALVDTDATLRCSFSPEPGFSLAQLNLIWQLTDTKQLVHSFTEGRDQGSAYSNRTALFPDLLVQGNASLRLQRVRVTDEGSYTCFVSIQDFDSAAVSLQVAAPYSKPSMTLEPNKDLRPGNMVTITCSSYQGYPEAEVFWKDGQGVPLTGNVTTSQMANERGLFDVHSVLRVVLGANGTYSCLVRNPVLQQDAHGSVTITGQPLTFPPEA
# T3: Cynomolgus B7H3 (plate-coated protein, ELISA) (cynomolgus monkey)
# T3 chain: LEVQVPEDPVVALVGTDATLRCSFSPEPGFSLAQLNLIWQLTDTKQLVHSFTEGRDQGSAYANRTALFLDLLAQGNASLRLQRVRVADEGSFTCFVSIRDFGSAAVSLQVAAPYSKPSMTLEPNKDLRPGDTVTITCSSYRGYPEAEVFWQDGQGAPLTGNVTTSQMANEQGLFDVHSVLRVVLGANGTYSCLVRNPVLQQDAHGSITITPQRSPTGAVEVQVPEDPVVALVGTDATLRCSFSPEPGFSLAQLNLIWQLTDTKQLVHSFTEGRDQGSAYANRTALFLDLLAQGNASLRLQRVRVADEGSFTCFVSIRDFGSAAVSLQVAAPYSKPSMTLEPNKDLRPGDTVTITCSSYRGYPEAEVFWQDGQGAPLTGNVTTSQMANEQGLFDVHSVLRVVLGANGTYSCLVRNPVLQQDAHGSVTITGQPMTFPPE
# T4: human B7H3-2Ig on BaF3 cells (BaF3/B7H3-2Ig) (human, UniProt Q5ZPR3 29-534)
# T4 chain: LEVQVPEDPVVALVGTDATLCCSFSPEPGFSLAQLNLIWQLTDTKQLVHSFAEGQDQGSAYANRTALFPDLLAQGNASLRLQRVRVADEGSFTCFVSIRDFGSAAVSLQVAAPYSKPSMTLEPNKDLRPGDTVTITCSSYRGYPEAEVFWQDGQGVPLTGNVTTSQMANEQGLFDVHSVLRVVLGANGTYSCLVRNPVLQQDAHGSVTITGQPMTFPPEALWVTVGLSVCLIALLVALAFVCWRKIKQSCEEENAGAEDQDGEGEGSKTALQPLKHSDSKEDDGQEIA
# T5: Human B7-H3 extracellular domain (NCBI Reference Sequence: NM_025240.2) (human, UniProt Q5ZPR3 29-466)
# T5 chain: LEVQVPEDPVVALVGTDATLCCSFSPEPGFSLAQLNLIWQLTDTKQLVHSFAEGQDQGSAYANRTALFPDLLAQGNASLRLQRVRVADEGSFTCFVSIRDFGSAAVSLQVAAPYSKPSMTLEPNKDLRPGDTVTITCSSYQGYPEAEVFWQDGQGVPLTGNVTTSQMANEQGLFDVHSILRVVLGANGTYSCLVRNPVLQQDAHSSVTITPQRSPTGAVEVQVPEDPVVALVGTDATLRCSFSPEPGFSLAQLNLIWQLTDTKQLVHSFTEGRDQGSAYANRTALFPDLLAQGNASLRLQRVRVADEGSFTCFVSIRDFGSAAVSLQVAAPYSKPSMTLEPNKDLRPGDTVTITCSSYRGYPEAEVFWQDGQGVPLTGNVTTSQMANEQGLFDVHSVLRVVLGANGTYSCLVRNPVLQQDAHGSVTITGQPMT
# B1: #27-2121 (VH2-1-VL2-1) (antibody, IgG1, V domains shown)
# VH: QVQLVQSGAEVVKPGASVKVSCKASGYTFTNYWMHWVRQAPGQGLEWMGMIHPNSGAFNYNERFKTRVTITVDKSTSTAYMELSSLRSEDTAVYYCARSTALATGYWGQGTLVTVSS
# VL: DIQLTQSPSFLSASVGDRVTITCSASSSVSYMYWYQQKPGKSPKLLIYDTSNLASGVPSRFSGSGSGTEYTLTISSLQPEDFATYYCQQWSSYPLTFGQGTKLEIK
# notes: Humanized antibody from murine #27; also called #27-VH2-1/VL2-1
# B2: #23-5423 (VH5-4-VL2-3) (antibody, IgG1, V domains shown)
# VH: QVQLVQSGAEVKKPGESLKISCKASGYNFNNYWMHWVRQRPGKGLEWIGMIHPNSGTFNYNERFKRKATLTVDKSISTAYLQWSSLKAEDTAMYYCAKSTALATDYWGQGTLVTVSS
# VL: B1 VL with D1Q, Q3V, F10T, S42A, S59I, E69S, E80D
# notes: Humanized antibody from murine #23
# B3: #23-5424 (VH5-4-VL2-4) (antibody, IgG1, V domains shown)
# VH: B2 VH
# VL: B1 VL with D1Q, Q3V, F10T, I21M, S42A, S59I, E69S, L77M, E80D, A83V
# notes: Humanized antibody from murine #23; also called #23-VH5-4/VL2-4
# B4: #27-21 (VH2-2-VL2-1) (antibody, V domains shown)
# VH: B1 VH with R38K, M48I, V113L
# VL: B1 VL
# notes: Humanized antibody from murine #27; Detected with anti-human IgG and captured through Fc; also called #27-VH2-2/VL2-1
# B5: #27-22 (VH2-2-VL2-2) (antibody, IgG1, V domains shown)
# VH: B1 VH with R38K, M48I, V113L
# VL: B1 VL with I21M, A83V
# notes: Humanized antibody from murine #27; also called #27-VH2-2/VL2-2
# Target: B7H3 expressed on LPS-stimulated human PBMCs (monocytes) (human) (UniProt Q5ZPR3)
# Assay: flow cytometry (MFI) on LPS-stimulated human PBMCs; panel 'XKH007-272121'
row,EC50 [nM],Binder
1,0.117,B1

# Target: T1, human B7H3-4Ig on BaF3 cells …
# Assay: flow cytometry (MFI) on BaF3 cells stably expressing human B7H3-4Ig; panel 'BaF3-B7H3-4Ig'
# Procedure: (§1) Cell surface binding affinity was tested with BaF3/B7H3-2Ig and BaF3/B7H3-4Ig the same method separately. Cells were washed with PBS and aliquot to 96-well U-bottom plate with a cell density of 5×10\hat{ }5 cells/well. For live/dead stain, LIVE/DEAD® Fixable Aqua Dead Cell Stain Kit (Life technologies, L34957) was applied (1:1000 in PBS, 100 ul/well) to cells, and incubated at 4° C. for 10 min FACS buffer (2% FBS in PBS, 100 ul/well) was added to each well to terminate staining. Centrifuge (1200 rpm, 5 min) to discard supernatant and wash with FACS buffer once. Humanized anti-B7H3 antibodies were diluted in FACS buffer to according concentrations and added to each well (100 ul/well). Cells were incubated at 4° C. for 30 min, and then, washed twice with FACS buffer. Alexa Fluor® 594 labeled goat anti-human IgG (Jackson Immuno Research, 109-585-088) was added (1:500 in FACS buffer) to label bounded antibodies. Cells were incubated at 4° C. for 30 min, and then, washed twice with FACS buffer.
row,binding result,Binder
1,binds,B2
2,binds,B3

# Target: T2, Mouse B7H3 (plate-coated protein, ELISA)
# Assay: ELISA, antigen coated on plate, anti-human IgG-HRP
# Procedure: (§2) In order to test humanized anti-B7H3 antibody binding affinity, an ELISA analysis was carried out. Human B7H3, mouse B7H3, and cynomolgus B7H3 (2 ug/ml, in PBS) were coated on MaxiSorp 96-well plates (NUNC, 449824) in 0.5M carbonate/bicarbonate buffer, pH9.6, incubated at 4° C. overnight. Coated plates were blocked with skimmed milk (5%, in PBST) for 1 h. Humanized anti-B7H3 antibodies were diluted and added to the plates, and incubated for 2 h at room temperature. Washed three times with PBST (1×PBS with 0.05% tween-20) to eliminate un-bounded antibodies. Goat anti-Human IgG-HRP (Easybio, BE0122, 1:5000 in PBS) was added and incubated for 1 h. Washed three times with PBST (lx PBS with 0.05% tween-20) to eliminate un-bounded antibodies. TMB (eBioscience, 00-4201-56) was added (50 ul/well) for color rendering and stopped by 2N H2SO4 (50 ul/well). Optical density was measured at 450 nm and […]. As shown in FIG. 1A and Table 1, the antibodies bind to human, mouse and cynomolgus monkey B7H3 protein with high affinity. The binding ability of the mAbs to cynomolgus B7H3 is similar to that for human B7-H3 protein.
row,EC50 [nM],Binder
1,0.586,B4
2,1.44,B2
3,0.462,B1
4,4.9,B3
5,0.34,B5

# Target: T3, Cynomolgus B7H3 (plate-coated protein, …)
# Assay: ELISA, antigen coated on plate, anti-human IgG-HRP
# Procedure: as §2
row,EC50 [nM],Binder
1,0.685,B4
2,0.042,B2
3,0.494,B1
4,0.0652,B3
5,0.584,B5

# Target: B7H3 expressed on LPS-stimulated human PBMCs (monocytes) (human) (UniProt Q5ZPR3)
# Assay: flow cytometry (MFI) on LPS-stimulated human PBMCs; panel 'XKH007-2721'
row,EC50 (read off the curve) [nM],Binder
1,0.06,B4

# Target: B7H3 expressed on LPS-stimulated human PBMCs (monocytes) (human) (UniProt Q5ZPR3)
# Assay: flow cytometry (MFI) on LPS-stimulated human PBMCs; panel 'XKH007 23-5424'
row,EC50 [nM],Binder
1,1.98,B3

# Target: T1, human B7H3-4Ig on BaF3 cells …
# Assay: flow cytometry (MFI) on BaF3 cells stably expressing human B7H3-4Ig; panel 'BaF3/4Ig-B7H3'
# Procedure: as §1
row,EC50 [nM],Binder
1,0.896,B4
2,0.908,B1
3,0.984,B5

# Target: T4, human B7H3-2Ig on BaF3 cells …
# Assay: flow cytometry on BaF3/B7H3-2Ig cells
row,EC50 [nM],Binder
1,< 1,B4
2,< 1,B1
3,< 1,B5

# Target: T1, human B7H3-4Ig on BaF3 cells …
# Assay: flow cytometry on BaF3/B7H3-4Ig cells
# Procedure: as §1
row,EC50 [nM],Binder
1,< 1,B4
2,< 1,B1
3,< 1,B5

# Target: B7H3 expressed on LPS-stimulated human PBMCs (monocytes) (human) (UniProt Q5ZPR3)
# Assay: flow cytometry (MFI) on LPS-stimulated human PBMCs; panel 'XKH007 23-5423'
row,EC50 [nM],Binder
1,1.54,B2

# Target: T4, human B7H3-2Ig on BaF3 cells …
# Assay: flow cytometry (MFI) on BaF3 cells stably expressing human B7H3-2Ig; panel 'BaF3/2Ig-B7H3'
row,EC50 [nM],Binder
1,0.897,B4
2,0.777,B1
3,1.16,B5

# Target: T5, Human B7-H3 extracellular domain (NCBI …)
# Assay: SPR, Biacore 8K, antibody captured through Fc, B7-H3 ECD as analyte
Kd [nM],koff [s⁻¹],kon [M⁻¹ s⁻¹],Binder
1.44,0.000431,299000,B4
1.05,0.000345,329000,B2
1.42,0.000433,306000,B1
1.36,0.000356,263000,B3
1.26,0.000365,288000,B5

# Target: B7H3 expressed on LPS-stimulated human PBMCs (monocytes) (human) (UniProt Q5ZPR3)
# Assay: flow cytometry (MFI) on LPS-stimulated human PBMCs; panel 'XKH007-2722'
row,EC50 [nM],Binder
1,0.131,B5

# Target: Human B7H3 (plate-coated protein, ELISA) (human) (UniProt Q5ZPR3)
# Assay: ELISA, antigen coated on plate, anti-human IgG-HRP
row,EC50 [nM],Binder
1,0.618,B4
2,0.0685,B2
3,0.583,B1
4,0.125,B3
5,0.333,B5

# Target: B7H3 expressed on LPS-stimulated human PBMCs (monocytes) (human) (UniProt Q5ZPR3)
# Assay: flow cytometry on LPS-stimulated human PBMCs
row,EC50 [nM],Binder
1,< 1,B4
2,< 3,B2
3,< 1,B1
4,< 3,B3
5,< 1,B5
